Drawing on article PMC9482650, “Quantitative fragmentomics allow affinity mapping of interactomes” (Nature Communications, 2022), this text covers pKd for five molecules.

The pKd is the negative decadic logarithm of the Kd, by convention in mol/L.

Targets include AHNAK1, Q09666; GRIP2_3, Q9C0E4; Inadl_4, Q8NI35; GORASP2, Q9H8Y8; TJP1_2, Q07157; HTRA2, O43464; GRIP2_5, Q9C0E4; DLG2_3, Q15700.
Holding throughout (assay): holdup assay
Set-up in all cases: key: below the threshold = too weak to quantify, mostly under pKd 3.1 to 4

The next assay concerns the target T1, SNTA1, Q13424.
T1 sequence (Q13424 82-180, limits assumed, looked up): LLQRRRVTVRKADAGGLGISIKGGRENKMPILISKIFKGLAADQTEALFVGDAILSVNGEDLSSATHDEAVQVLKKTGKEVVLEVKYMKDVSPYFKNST

The next assay has as its target T2, CARD11, Q9BXL7.
T2 sequence (Q9BXL7 662-765, limits assumed, looked up): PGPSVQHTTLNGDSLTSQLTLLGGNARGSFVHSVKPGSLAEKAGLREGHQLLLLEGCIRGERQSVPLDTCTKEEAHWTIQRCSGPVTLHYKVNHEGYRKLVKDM

For another assay, the target named is T3, GRIP1_5, Q9Y3R0.
T3 sequence (Q9Y3R0 568-668, limits assumed, looked up): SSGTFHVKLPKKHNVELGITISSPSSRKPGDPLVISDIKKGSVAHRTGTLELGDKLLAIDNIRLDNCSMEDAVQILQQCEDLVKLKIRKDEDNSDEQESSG

The next assay deals with T4, DFNB31_2, Q9P202.
T4 sequence (Q9P202 274-371, limits assumed, looked up): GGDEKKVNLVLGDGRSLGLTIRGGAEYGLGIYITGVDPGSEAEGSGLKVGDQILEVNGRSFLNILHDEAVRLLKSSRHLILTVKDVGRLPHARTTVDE

A further assay addresses T5, GRIP1_2, Q9Y3R0.
T5 sequence (Q9Y3R0 145-248, limits assumed, looked up): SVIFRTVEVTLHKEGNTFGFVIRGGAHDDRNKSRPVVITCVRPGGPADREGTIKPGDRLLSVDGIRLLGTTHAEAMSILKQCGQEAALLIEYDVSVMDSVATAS

In the next assay the target is T6, TJP3_3, O95049.
T6 sequence (O95049 375-456, limits assumed, looked up): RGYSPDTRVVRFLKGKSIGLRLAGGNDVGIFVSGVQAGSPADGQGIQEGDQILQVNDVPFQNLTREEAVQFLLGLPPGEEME

Another assay has as its target T7, MPP6, Q9NZW5.
T7 sequence (Q9NZW5 125-219, limits assumed, looked up): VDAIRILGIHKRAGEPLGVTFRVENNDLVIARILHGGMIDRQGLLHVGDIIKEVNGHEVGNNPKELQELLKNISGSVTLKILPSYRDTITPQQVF

The target in a further assay is T8, TX1BP3, O14907.
T8 sequence (O14907 10-122, limits assumed, looked up): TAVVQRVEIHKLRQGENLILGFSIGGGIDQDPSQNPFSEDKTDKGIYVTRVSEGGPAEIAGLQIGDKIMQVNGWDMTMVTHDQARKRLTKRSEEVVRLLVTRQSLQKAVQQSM

In a further assay the target is T9, APBA1_1, Q02410.
T9 sequence (Q02410 651-752, limits assumed, looked up): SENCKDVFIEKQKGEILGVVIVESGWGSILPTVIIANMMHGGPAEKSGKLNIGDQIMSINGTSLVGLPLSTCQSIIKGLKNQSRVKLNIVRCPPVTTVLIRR

A further assay deals with T10, MPDZ_10, O75970.
T10 sequence (O75970 1624-1722, limits assumed, looked up): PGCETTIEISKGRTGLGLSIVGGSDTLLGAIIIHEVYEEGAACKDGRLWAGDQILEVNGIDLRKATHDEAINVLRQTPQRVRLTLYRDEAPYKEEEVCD

Another assay concerns the target T11, GRIP1_3, Q9Y3R0.
T11 sequence (Q9Y3R0 247-346, limits assumed, looked up): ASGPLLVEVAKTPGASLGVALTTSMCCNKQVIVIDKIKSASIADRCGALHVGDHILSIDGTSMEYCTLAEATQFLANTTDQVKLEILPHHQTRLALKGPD

The next assay has as its target T12, LNX2_2, Q8N448.
T12 sequence (Q8N448 334-432, limits assumed, looked up): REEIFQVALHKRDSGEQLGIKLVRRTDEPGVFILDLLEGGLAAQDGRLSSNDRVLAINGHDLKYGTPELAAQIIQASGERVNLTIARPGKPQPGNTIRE

The next assay addresses T13, SIPA1L2, Q9P2F8.
T13 sequence (Q9P2F8 945-1036, limits assumed, looked up): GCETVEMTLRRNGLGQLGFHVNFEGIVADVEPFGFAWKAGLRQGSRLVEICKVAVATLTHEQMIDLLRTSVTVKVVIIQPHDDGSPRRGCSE

The target in a further assay is T14, PTPN13_1, Q12923.
T14 sequence (Q12923 1088-1188, limits assumed, looked up): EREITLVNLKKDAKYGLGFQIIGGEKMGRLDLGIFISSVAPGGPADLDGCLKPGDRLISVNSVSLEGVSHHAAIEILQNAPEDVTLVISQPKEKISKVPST

Where [1] appears, read: plain residues with an end cap or a label only (N-terminal biotin on a linker: ado-ado).
Where [2] appears, read: plain residues with an end cap or a label only (N-terminal biotin on a linker: none).
The mark [3] stands for this setting: plain residues with an end cap or a label only (N-terminal biotin on a linker: ttds).
[4] abbreviates: plain residues with an end cap or a label only (N-terminal biotin on a linker: ahx).

TJP1_2, Q07157, sequence (Q07157 181-274): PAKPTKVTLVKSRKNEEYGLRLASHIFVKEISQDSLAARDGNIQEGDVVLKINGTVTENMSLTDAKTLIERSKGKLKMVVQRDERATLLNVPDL
GRIP2_5, Q9C0E4, sequence (Q9C0E4 544-642): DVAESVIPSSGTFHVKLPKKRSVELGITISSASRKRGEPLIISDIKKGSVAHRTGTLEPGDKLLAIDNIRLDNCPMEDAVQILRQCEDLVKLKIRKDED
Inadl_4, Q8NI35, sequence (Q8NI35 547-651): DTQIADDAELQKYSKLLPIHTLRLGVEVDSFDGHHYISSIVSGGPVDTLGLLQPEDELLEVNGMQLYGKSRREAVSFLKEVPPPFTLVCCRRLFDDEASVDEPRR
HTRA2, O43464, sequence (O43464 355-458): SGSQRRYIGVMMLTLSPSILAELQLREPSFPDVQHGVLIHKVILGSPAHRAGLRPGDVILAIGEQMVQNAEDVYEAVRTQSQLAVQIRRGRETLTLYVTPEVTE
GRIP2_3, Q9C0E4, sequence (Q9C0E4 238-339): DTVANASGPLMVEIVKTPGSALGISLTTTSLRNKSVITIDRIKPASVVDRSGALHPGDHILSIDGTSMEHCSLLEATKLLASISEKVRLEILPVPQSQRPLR

B1: NRXN3_rs746444206, Q9Y4C0 (peptide)
chain: QKNKDKEYYV
Take B1: the pKd with SNTA1, Q13424 (setting [1]) was 3.78; in the assay with CARD11, Q9BXL7 (setting [1]), “below the threshold”; in the assay with GRIP1_5, Q9Y3R0 (setting [1]), “below the threshold”; with DFNB31_2, Q9P202 (setting [1]), “below the threshold”; with GRIP1_2, Q9Y3R0 (setting [1]), “below the threshold”; in the assay with AHNAK1, Q09666 (setting [1]), “below the threshold”. Moreover, the negative logarithm of the Kd (pKd) result was “below the threshold” with GRIP2_3, Q9C0E4 (setting [1]); “below the threshold” with Inadl_4, Q8NI35 (setting [1]); 3.86 with TJP3_3, O95049 (setting [1]); 4.47 with GORASP2, Q9H8Y8 (setting [1]); 4.43 with MPP6, Q9NZW5 (setting [1]); “below the threshold” with TX1BP3, O14907 (setting [1]). Moreover, the pKd result with TJP1_2, Q07157 (setting [1]) is “below the threshold”; with APBA1_1, Q02410 (setting [1]), “below the threshold”; with HTRA2, O43464 (setting [1]), 3.51; with MPDZ_10, O75970 (setting [1]), “below the threshold”; with GRIP2_5, Q9C0E4 (setting [1]) it was “below the threshold”; in the assay with DLG2_3, Q15700 (setting [1]), “below the threshold”. Also, the pKd result with GRIP1_3, Q9Y3R0 (setting [1]) is “below the threshold”; with LNX2_2, Q8N448 (setting [1]), 4.7; with SIPA1L2, Q9P2F8 (setting [1]), “below the threshold”; with PTPN13_1, Q12923 (setting [1]), “below the threshold”.

B2: MERS-E, K9N5R3 (peptide)
chain: DSKPPLPPDEWV
Regarding B2, the pKd entry was “below the threshold” with SNTA1, Q13424 (setting [2]); “below the threshold” in the assay with CARD11, Q9BXL7 (setting [2]); 3.68 with GRIP1_5, Q9Y3R0 (setting [2]); “below the threshold” in the assay with DFNB31_2, Q9P202 (setting [2]); 3.62 with GRIP1_2, Q9Y3R0 (setting [2]); “below the threshold” with AHNAK1, Q09666 (setting [2]). The negative-log Kd (pKd) with GRIP2_3, Q9C0E4 (setting [2]) was 3.52; in the assay with Inadl_4, Q8NI35 (setting [2]), “below the threshold”; with TJP3_3, O95049 (setting [2]), 4.83; in the assay with GORASP2, Q9H8Y8 (setting [2]) it was 4.57; with MPP6, Q9NZW5 (setting [2]), “below the threshold”; with TX1BP3, O14907 (setting [2]) it was 3.7. Also, the pKd was 4.16 with TJP1_2, Q07157 (setting [2]); 3.53 with APBA1_1, Q02410 (setting [2]); 4.2 in the assay with HTRA2, O43464 (setting [2]); “below the threshold” in the assay with MPDZ_10, O75970 (setting [2]); “below the threshold” in the assay with GRIP2_5, Q9C0E4 (setting [2]); “below the threshold” in the assay with DLG2_3, Q15700 (setting [2]). Also, the pKd entry with GRIP1_3, Q9Y3R0 (setting [2]) was “below the threshold”; with LNX2_2, Q8N448 (setting [2]), 4.44; with SIPA1L2, Q9P2F8 (setting [2]) it was “below the threshold”; with PTPN13_1, Q12923 (setting [2]) it was “below the threshold”.

B3: NCBP2L, A6PVI3 (peptide)
chain: RGGFGRQTQI
As for B3, the negative-log Kd (pKd) in the assay with SNTA1, Q13424 (setting [1]) is 4.2; with CARD11, Q9BXL7 (setting [1]), “below the threshold”; in the assay with GRIP1_5, Q9Y3R0 (setting [1]), “below the threshold”; with DFNB31_2, Q9P202 (setting [1]) it was “below the threshold”; with GRIP1_2, Q9Y3R0 (setting [1]), “below the threshold”; with AHNAK1, Q09666 (setting [1]) it was “below the threshold”. Besides, the pKd result is “below the threshold” with GRIP2_3, Q9C0E4 (setting [1]); “below the threshold” with Inadl_4, Q8NI35 (setting [1]); “below the threshold” in the assay with TJP3_3, O95049 (setting [1]); 4.19 with GORASP2, Q9H8Y8 (setting [1]); “below the threshold” in the assay with MPP6, Q9NZW5 (setting [1]); 4.4 with TX1BP3, O14907 (setting [1]). Besides, the pKd entry was “below the threshold” with TJP1_2, Q07157 (setting [1]); “below the threshold” in the assay with APBA1_1, Q02410 (setting [1]); “below the threshold” with HTRA2, O43464 (setting [1]); “below the threshold” with MPDZ_10, O75970 (setting [1]); “below the threshold” with GRIP2_5, Q9C0E4 (setting [1]); 4.54 in the assay with DLG2_3, Q15700 (setting [1]). In addition, the pKd result was “below the threshold” with GRIP1_3, Q9Y3R0 (setting [1]); “below the threshold” with LNX2_2, Q8N448 (setting [1]); “below the threshold” in the assay with SIPA1L2, Q9P2F8 (setting [1]); 3.71 with PTPN13_1, Q12923 (setting [1]).

B4: CBP, Q92793 (peptide)
chain: TGDTLEKFVEGL
On to B4, for which the negative-log Kd (pKd) entry with SNTA1, Q13424 (setting [3]) is on record as “below the threshold”; in the assay with CARD11, Q9BXL7 (setting [3]), “below the threshold”; with GRIP1_5, Q9Y3R0 (setting [3]) it was “below the threshold”; in the assay with DFNB31_2, Q9P202 (setting [3]), “below the threshold”; with GRIP1_2, Q9Y3R0 (setting [3]), “below the threshold”; with AHNAK1, Q09666 (setting [3]), “below the threshold”. The negative logarithm of the Kd (pKd) entry was “below the threshold” in the assay with GRIP2_3, Q9C0E4 (setting [3]); “below the threshold” in the assay with Inadl_4, Q8NI35 (setting [3]); “below the threshold” with TJP3_3, O95049 (setting [3]); “below the threshold” with GORASP2, Q9H8Y8 (setting [3]); “below the threshold” with MPP6, Q9NZW5 (setting [3]); 4.03 in the assay with TX1BP3, O14907 (setting [3]). Besides, the pKd result was “below the threshold” with TJP1_2, Q07157 (setting [3]); “below the threshold” with APBA1_1, Q02410 (setting [3]); “below the threshold” in the assay with HTRA2, O43464 (setting [3]); 3.67 with MPDZ_10, O75970 (setting [3]); “below the threshold” with GRIP2_5, Q9C0E4 (setting [3]); “below the threshold” with DLG2_3, Q15700 (setting [3]). Moreover, the pKd entry is recorded as “below the threshold” with GRIP1_3, Q9Y3R0 (setting [3]); “below the threshold” in the assay with LNX2_2, Q8N448 (setting [3]); “below the threshold” with SIPA1L2, Q9P2F8 (setting [3]); “below the threshold” in the assay with PTPN13_1, Q12923 (setting [3]).

B5: APC, P25054 (peptide)
chain: HSGSYLVTSV
As for B5, the pKd in the assay with SNTA1, Q13424 (setting [4]) is 3.64; with CARD11, Q9BXL7 (setting [4]), “below the threshold”; in the assay with GRIP1_5, Q9Y3R0 (setting [4]) it was “below the threshold”; with DFNB31_2, Q9P202 (setting [4]), “below the threshold”; in the assay with GRIP1_2, Q9Y3R0 (setting [4]) it was “below the threshold”; with AHNAK1, Q09666 (setting [4]) it was “below the threshold”. Also, the negative-log Kd (pKd) result was “below the threshold” in the assay with GRIP2_3, Q9C0E4 (setting [4]); “below the threshold” with Inadl_4, Q8NI35 (setting [4]); “below the threshold” in the assay with TJP3_3, O95049 (setting [4]); 4.41 with GORASP2, Q9H8Y8 (setting [4]); “below the threshold” in the assay with MPP6, Q9NZW5 (setting [4]); 5.53 with TX1BP3, O14907 (setting [4]). The pKd entry with TJP1_2, Q07157 (setting [4]) is “below the threshold”; with APBA1_1, Q02410 (setting [4]), “below the threshold”; in the assay with HTRA2, O43464 (setting [4]), “below the threshold”; in the assay with MPDZ_10, O75970 (setting [4]), 4.06; with GRIP2_5, Q9C0E4 (setting [4]), “below the threshold”; in the assay with DLG2_3, Q15700 (setting [4]), 4.67. The pKd result was “below the threshold” with GRIP1_3, Q9Y3R0 (setting [4]); 4.56 with LNX2_2, Q8N448 (setting [4]); “below the threshold” with SIPA1L2, Q9P2F8 (setting [4]); “below the threshold” with PTPN13_1, Q12923 (setting [4]).
